The results in this text go back to patent US12534531 (MacroGenics, dated 2026).

Changes are numbered by the printed parent chain.

In experiment [1] the target is T1, human PD-1 expressed on the surface of cells (NSO cells expressing human PD-1; MNFAT-luc2/PD-1 Jurkat cells) (human, UniProt Q15116 21-288).
T1 construct: also called cell surface PD-1; PDCD1 transfected NSO cells expressing PD-1
Nature of the experiment: FACS: inhibition of sPD-L2 binding to PD-1 on NSO cells; SM; SD 0.4285. (In general: In flow cytometry, cells or beads pass a laser one at a time.)

In experiment [2] the target is T1, human PD-1 expressed on the surface of …. Briefly: FACS saturation binding to NSO cells expressing PD-1; SM; SD 0.4324.
For experiment [3] the target is unchanged. Nature of the experiment: FACS: inhibition of sPD-L1 binding to PD-1 on NSO cells; SM; SD 0.1485.
Experiment [4] concerns the target T2, human LAG-3 expressed on NSO cells (human, UniProt P18627 29-525).
T2 sequence: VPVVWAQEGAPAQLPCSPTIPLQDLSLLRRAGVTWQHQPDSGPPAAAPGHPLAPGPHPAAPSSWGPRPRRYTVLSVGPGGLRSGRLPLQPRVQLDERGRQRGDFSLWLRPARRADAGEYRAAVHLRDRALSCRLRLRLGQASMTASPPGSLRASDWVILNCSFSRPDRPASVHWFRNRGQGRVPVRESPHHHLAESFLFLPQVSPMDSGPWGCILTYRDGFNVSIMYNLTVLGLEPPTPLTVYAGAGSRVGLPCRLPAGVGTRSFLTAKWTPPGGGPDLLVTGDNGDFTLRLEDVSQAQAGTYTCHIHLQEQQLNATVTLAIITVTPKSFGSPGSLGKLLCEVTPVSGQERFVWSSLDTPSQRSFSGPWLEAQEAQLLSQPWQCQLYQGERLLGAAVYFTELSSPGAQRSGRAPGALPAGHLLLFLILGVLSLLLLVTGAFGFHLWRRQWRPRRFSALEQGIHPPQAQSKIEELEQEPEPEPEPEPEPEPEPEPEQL
Briefly: FACS saturation binding to NSO cells expressing LAG-3; SM; SD 0.2231.

Experiment [5] addresses T3, biotinylated-soluble human LAG-3-Fc fusion protein (human, UniProt P18627 23-450, biotinylated (site not stated)).
T3 construct: whole entry named; also called shLAG-3; shLAG-3-Fc; not shown: Fc
T3 sequence: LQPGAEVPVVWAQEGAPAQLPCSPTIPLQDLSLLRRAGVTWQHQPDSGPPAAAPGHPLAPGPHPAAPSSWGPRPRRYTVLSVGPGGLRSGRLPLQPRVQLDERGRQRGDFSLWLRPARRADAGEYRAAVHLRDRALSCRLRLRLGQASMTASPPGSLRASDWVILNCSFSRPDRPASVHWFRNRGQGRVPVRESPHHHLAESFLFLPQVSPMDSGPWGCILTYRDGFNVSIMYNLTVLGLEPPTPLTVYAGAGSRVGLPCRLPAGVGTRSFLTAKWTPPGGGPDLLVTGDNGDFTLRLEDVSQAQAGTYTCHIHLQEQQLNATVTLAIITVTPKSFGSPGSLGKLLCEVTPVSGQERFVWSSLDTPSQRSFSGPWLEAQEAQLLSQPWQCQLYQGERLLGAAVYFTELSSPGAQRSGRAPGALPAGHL
Briefly: FACS: inhibition of shLAG-3-Fc binding to MHC II on Daudi cells (column head prints EC50); SM; SD 1.6465.

Experiment [6] concerns the target T3, biotinylated-soluble human LAG-3-Fc …. Briefly: FACS: inhibition of shLAG-3-Fc binding to MHC II on Daudi cells (column head prints EC50); SM; SD 0.1104.
Experiment [7] has as its target T1, human PD-1 expressed on the surface of …. Briefly: FACS saturation binding to NSO cells expressing PD-1; single experiment.
The target is the same in experiment [8]. Nature of the experiment: FACS: inhibition of sPD-L2 binding to PD-1 on NSO cells; SM; SD 0.3154.
In experiment [9] the target is T2, human LAG-3 expressed on NSO cells. Briefly: FACS saturation binding to NSO cells expressing LAG-3; single experiment.
The target of experiment [10] is T1, human PD-1 expressed on the surface of …. Briefly: FACS: inhibition of sPD-L1 binding to PD-1 on NSO cells; SM; SD 0.0007.
For experiment [11] the target is unchanged. Briefly: FACS blocking on NSO cells expressing human PD-1, 1:4 dilutions, MFI; blocked ligand: biotinylated sPD-L1, streptavidin-PE.
The target is the same in experiment [12]. Briefly: FACS: inhibition of sPD-L1 binding to PD-1 on NSO cells; SM; SD 0.2337.
Experiment [13] shares this target. Briefly: FACS saturation binding to NSO cells expressing PD-1; SM; SD 0.3958.
Experiment [14] shares this target. Nature of the experiment: FACS: inhibition of sPD-L2 binding to PD-1 on NSO cells; SM; SD 0.2893.
The target is the same in experiment [15]. Briefly: FACS blocking on NSO cells expressing human PD-1, 1:4 dilutions, MFI; blocked ligand: biotinylated sPD-L2, streptavidin-PE.
Experiment [16] deals with T4, soluble human PD-1 (the extracellular domain of human PD-1 fused to a His tag) (human, UniProt Q15116 25-170).
T4 construct: also called shPD-1 His; shPD-1-His; not shown: His tag
Nature of the experiment: Biacore, mAb captured on F(ab)2 goat anti-human Fc, analyte shPD-1 His. On the technique in general: In SPR one partner is held on a chip, and binding of the other changes the refractive index at the surface.

Experiment [17] has as its target T1, human PD-1 expressed on the surface of …. Briefly: FACS saturation binding on NSO cells expressing human PD-1, goat anti-human-APC, MFI, 1:4 dilutions.
Experiment [18] has as its target soluble cynomolgus monkey PD-1 (scyno PD-1 hFc) cleaved to remove Fc portion (cynomolgus monkey, UniProt B0LAJ3 25-170). Briefly: Biacore, mAb captured on F(ab)2 goat anti-human Fc, analyte scyno PD-1 hFc cleaved of Fc.
Experiment [19] deals with T1, human PD-1 expressed on the surface of …. Briefly: FACS: inhibition of sPD-L1 binding to PD-1 on NSO cells; SM; SD 0.1668.
The target is the same in experiment [20]. Nature of the experiment: FACS: inhibition of sPD-L2 binding to PD-1 on NSO cells; SM; SD 0.2563.
The target is the same in experiment [21]. Briefly: FACS saturation binding to NSO cells expressing PD-1; SM; SD 0.8112.
Experiment [22] deals with T5, PD-1 on the surface of CD4+ and CD8+ T cells of cynomolgus monkeys (cynomolgus monkey, UniProt B0LAJ3 25-288).
T5 construct: In vivo occupancy read by flow cytometry; also called PD-1+/CD4+ and PD-1+/CD8+ cells
Briefly: flow cytometry competition with labeled hPD-1 mAb 7 (1.2) IgG4 (P) on blood of cynomolgus monkeys given 10 mg/kg.

B1: DART A (bispecific antibody, human IgG4 S228P)
chain 1: DIVMTQTPLSLSVTPGQPASISCKSSQSLLHSDAKTYLNWLLQKPGQPPERLIYLVSELDSGVPDRFSGSGSGTDFTLKISRVEAEDVGVYYCWQGTHFPYTFGGGTKVEIKGGGSGGGGQVQLVQSGAEVKKPGASVKVSCKASGYSFTSYWMNWVRQAPGQGLEWIGVIHPSDSETWLDQKFKDRVTITVDKSTSTAYMELSSLRSEDTAVYYCAREHYGTSPFAYWGQGTLVTVSSGGCGGGEVAACEKEVAALEKEVAALEKEVAALEKESKYGPPCPPCPAPEFLGGPSVFLFPPKPKDTLYITREPEVTCVVVDVSQEDPEVQFNWYVDGVEVHNAKTKPREEQFNSTYRVVSVLTVLHQDWLNGKEYKCKVSNKGLPSSIEKTISKAKGQPREPQVYTLPPSQEEMTKNQVSLTCLVKGFYPSDIAVEWESNGQPENNYKTTPPVLDSDGSFFLYSRLTVDKSRWQEGNVFSCSVMHEALHNHYTQKSLSLSLG
chain 2: EIVLTQSPATLSLSPGERATLSCRASESVDNYGMSFMNWFQQKPGQPPKLLIHAASNQGSGVPSRFSGSGSGTDFTLTISSLEPEDFAVYFCQQSKEVPYTFGGGTKVEIKGGGSGGGGQVQLVQSGAEVKKPGASVKVSCKASGYTFTNYGMNWVRQAPGQGLEWMGWINTYTGESTYADDFEGRFVFSMDTSASTAYLQISSLKAEDTAVYYCARESLYDYYSMDYWGQGTTVTVSSGGCGGGKVAACKEKVAALKEKVAALKEKVAALKE
One may read the IC50 as the midpoint of a concentration-inhibition curve. A word on the EC50: it is the concentration at which the effect is half-maximal. In the case of B1, the IC50 was determined as 1630 nM in experiment [1], 964 nM in experiment [3] and 1380 nM in experiment [5]. Further, the EC50 amounted to 1930 nM in experiment [2] and 840 nM in [4].

B2: DART B (bispecific antibody, human IgG4 S228P)
chain 1: B1 chain 1 with A34G
chain 2: B1 chain 2
As a reminder, the EC90 is the concentration needed for an effect of 90%. Turning to B2, the IC50 stood at 408 nM in [6], 2120 nM in [8] and 1150 nM in experiment [10]. The EC50 in experiment [7] is 1760 nM; in [9] it was 1080 nM. The EC90 in [7] was determined as 12300 nM.

B3: hPD-1 mAb 7 (1.2) IgG1 (AA) (antibody)
heavy: not shown
light: EIVLTQSPATLSLSPGERATLSCRASESVDNYGMSFMNWFQQKPGQPPKLLIHAASNQGSGVPSRFSGSGSGTDFTLTISSLEPEDFAVYFCQQSKEVPYTFGGGTKVEIKRTVAAPSVFIFPPSDEQLKSGTASVVCLLNNFYPREAKVQWKVDNALQSGNSQESVTEQDSKDSTYSLSSTLTLSKADYEKHKVYACEVTHQGLSSPVTKSFNRGEC
notes: also called h1PD-1 mAb 7(1.2) IgG1 (AA)
In general, Kd refers to the free concentration of one partner at which half of the binding sites on the other are occupied at equilibrium, for simple one-to-one binding. One may read the EC50 (read off the curve) as the concentration that produces a half-maximal response. Consider B3, for which the “IC50 (read off the curve)” value in experiment [11] is about 0.01 ug/test; in experiment [15], about 0.02 ug/test. For the same molecule, the results for the IC50 in experiment [12] and in experiment [14] were 732 nM and 977 nM, respectively. The molecule further showed an EC50 in [13] of 1090 nM. The equilibrium dissociation constant (Kd) in experiment [16] is 1.5 nM; in experiment [18], 4.9 nM. For the same molecule, the “EC50 (read off the curve)” value in [17] is about 0.08 µg/mL.

B4: hPD-1 mAb 7 (1.2) IgG4 (P) (antibody)
heavy: not shown
light: B3 light
notes: also called MGD012
In the case of B4, the IC50 in [19] was found to be 519 nM; in experiment [20], 1040 nM. In addition, the “IC50 (read off the curve)” value was about 0.01 ug/test in experiment [11] and about 0.02 ug/test in experiment [15]. In addition, the Kd in experiment [16] was 1.5 nM; in experiment [18] it was 4.6 nM. The “EC50 (read off the curve)” value in [17] was about 0.1 µg/mL. The molecule also gave an EC50 in experiment [21] of 1210 nM. Further, the “PD-1 binding on CD4+ and CD8+ T cells (% bound, in vivo)” value in [22] was at least 80%.
